Source: the supplement of paper PMC10567573
± gives the standard deviation.

Test: protein stability index of a GFP-peptide fusion (GPS, HEK-293T) (PSI 1-6); higher = more stable
[1] = treatment: DMSO, c terminus: a fixed tail appended
[2] = treatment: MLN4924 1 uM, 8 h, c terminus: a fixed tail appended
[3] = treatment: MLN4924 1 uM, 8 h, c terminus: native
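Note: 24-mer peptide tiles fused after GFP, lentivirally expressed, FACS-sorted into six equal bins by GFP/DsRed ratio, decoded by Illumina sequencing, PSI is the read-weighted mean bin number.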

| Sequence | protein stability index [1] | protein stability index [2] | protein stability index (treatment: DMSO, c terminus: native) | protein stability index [3] |
| --- | --- | --- | --- | --- |
| LGISPSTCSFNPGVIVANMTEWKH [GLT8D2] | 2.59 ± 0.3 | 2.59 ± 0.23 | – | – |
| ASSPGNPTALANGTVQAPKQKGD [LPCAT4] | – | – | 5.31 ± 0.21 | 5.22 ± 0.35 |
| PELMEHTEAESEQEGSSGMELSWG [TEX19] | 5.4 ± 0.32 | 5.32 ± 0.35 | – | – |
| GGEEEDEDENIEVVYSKAASVPKV [EIF5] | 5.18 ± 0.14 | 4.93 ± 0.47 | – | – |
| RQHHHQSSFPGSLPQETNLTLKVC | 2.89 ± 0.48 | 3.34 ± 0.56 | – | – |
| EKLATDTSTFEATSEGTLELQQRN [ZNF232] | 5.29 ± 0.22 | 5.41 ± 0.14 | – | – |
| TEQFTAMRDLYMKNGQGFALVYSI [RAP1B] | 3.25 ± 1 | 2.96 ± 0.5 | – | – |
| SDQVKISEEALRADGFGDNPFYHC [SAT2] | 4.16 ± 0.28 | 4.25 ± 0.24 | – | – |
| IYKKYALQSAAGKDAAKQIAWIKD [PDS5B] | 2.03 ± 0.3 | 2.61 ± 0.44 | – | – |
| KYVSKELAKEIRVKAEPFIKWLKE [EIF5] | 3.08 ± 0.4 | 3.07 ± 0.46 | – | – |
| NQLLVADVKRLGKQNARFLTSMRR [STX11] | 2.97 ± 0.079 | 3.08 ± 0.41 | – | – |
| TNPDLIIVCAQSSQSLWNRLSVLL [SMG5] | 2.59 ± 0.54 | 2.49 ± 0.64 | – | – |
| CLHMFLQDEIIDKSYTPSKIRHA [SNX3] | – | – | – | 2.77 ± 0.46 |
| WKEGRPRVEESGSKKEGKRQGPKE [PBXIP1] | 5.28 ± 0.46 | 5.24 ± 0.12 | – | – |
| ERLQLEYVDVVFANRPDPNTPMEE [KCNAB2] | 4.7 ± 0.23 | 4.75 ± 0.33 | – | – |
| EKKLTVRQDLEDRYAEHVAATQAL [C22orf31] | 4.55 ± 0.12 | 4.53 ± 0.21 | – | – |
| TVKMLRTQRPAMVQTEDQYQFSYR [PTPRD] | 2.84 ± 0.37 | 2.97 ± 0.33 | – | – |
| DVEFLPVYHPSPEESRDPTLYANN [LPCAT4] | 4.88 ± 0.32 | 4.64 ± 0.054 | – | – |
| RGTQYSSLDSLDGLSLTDESDSCV [PSD2] | 5.26 ± 0.22 | 5.3 ± 0.14 | – | – |
| AHHRSGAQVFPESPESESDHEHEE [GNAS] | 5.63 ± 0.24 | 5.54 ± 0.26 | – | – |
| MAAESLPFSFGTLSSWELEAWYED [DDIT3] | 3.21 ± 0.074 | 3.45 ± 0.23 | – | – |
| EIPWTSLTRKGLVRVVFFPLFSNW [PHTF1] | 3.09 ± 0.89 | 2.84 ± 0.23 | – | – |
| MAKKHKKIRLRCQKGIPPSLRGRA [TBC1D10A] | 3.29 ± 0.18 | 3.35 ± 0.29 | – | – |

| Sequence | protein stability index [1] | protein stability index [2] | protein stability index (treatment: DMSO, c terminus: native) | protein stability index [3] |
| --- | --- | --- | --- | --- |
| IERCIFPERIYQGSSGSYFVKDPQ [PI4K2A] | 3.25 ± 0.22 | 3.2 ± 0.35 | – | – |
| GEGRKSRKFSRLSCLRRRRHPPKV [SMG5] | 3.69 ± 0.37 | 3.82 ± 0.28 | – | – |
| AQIDQYVGLVTNQLSHIKAKIRAK [RTN2] | 2.7 ± 0.3 | 2.75 ± 0.28 | – | – |
| PTYKVMYKIVTAREWRCCPGHSGV [EMID1] | 2.5 ± 0.57 | 2.89 ± 0.75 | – | – |
| FYLPSSPNLSLASEDEEEYESGYA [SMG5] | 4.55 ± 0.067 | 4.59 ± 0.21 | – | – |
| GKRYCRGKVLGKGGFAKCYEMTDL [PLK2] | 2.79 ± 0.35 | 2.92 ± 0.27 | – | – |
| VRHLEEENRGIVVLGINRAYGKNS [AUH] | 3.15 ± 0.36 | 3.31 ± 0.22 | – | – |
| VTGHTNIVDFLTHHAQTSKTERIN [FEM1C] | 3.45 ± 0.11 | 3.54 ± 0.19 | – | – |
| EGFHNYHHSFPYDYSASEYRWHIN [SCD] | 2.37 ± 0.18 | 2.48 ± 0.18 | – | – |
| NFCKHNGSKNVFSTFRTPAVLFTG [ATL3] | 2.21 ± 0.32 | 2.33 ± 0.13 | – | – |
| LLSFLLLMDYIGINLATMNSCINP [EDNRA] | 2.58 ± 0.73 | 4.18 ± 0.46 | – | – |
| VKGLFKSENCPKVISCEFAHNSNW [LARP4] | 2.17 ± 0.24 | 2.4 ± 0.24 | – | – |
| GNPEPVSYYIIQHKPKNSEELYKE [PTPRD] | 3.77 ± 0.34 | 3.47 ± 0.54 | – | – |
| TEMIITKAGRRMFPACRVSVTGLD [TBX6] | 2.31 ± 0.3 | 2.2 ± 0.22 | – | – |
| EEKQASLWVQGDIFRSKLKNRPSS [CDC14A] | 3.89 ± 0.049 | 4 ± 0.25 | – | – |
| EAEREFILNLKKKECKDRGFEYDG [NLN] | 4.58 ± 0.41 | 4.91 ± 0.32 | – | – |
| EWDAMGGKVQDIKAREKDGKGRTA [FSD1] | 5.16 ± 0.21 | 5.35 ± 0.14 | – | – |
| SGLEKEVQRLTSRAARDYKIQNHG [FCHSD1] | 3.89 ± 0.16 | 3.61 ± 0.38 | – | – |
| AASSYSFSDLNSTRGDADMYDLPK [EMD] | 4.43 ± 0.23 | 4.53 ± 0.26 | – | – |
| VLLHGPPGTGKTSLCKALAQKLTI [TRIP13] | 2.58 ± 0.6 | 2.31 ± 0.53 | – | – |
| QLCGKTFLTLEKFTIHNYSHSRER [PLAGL1] | 2.15 ± 0.57 | 2.27 ± 0.27 | – | – |
| TLAVTCQLPIDRGGGEGKAMYIDT [RAD51] | 3.14 ± 0.25 | 3.33 ± 0.32 | – | – |
